Legend:
[1] = target: T1, Bcl‐2‐ΔTM (recombinant His‐tagged Bcl‐2 without its transmembrane domain); test: ITC; 200 μM acetylated peptide injected into 20 μM Bcl‐2‐ΔTM in the cell; binding buffer (50 mM Tris, 100 mM NaCl, pH 8.0); 25°C; one‐site model; Kd as reciprocal of Ka; triplicate; details: both partners purified
T1 construct: also called Bcl‐2 (proper); Bcl‐2‐ΔTM proteins

[2] = target: T1, Bcl‐2‐ΔTM (recombinant His‐tagged Bcl‐2 …); test: fluorescence polarisation; competition: 100 nM Bcl‐2‐ΔTM and 25 nM ^FluBax‐BH3^ΔB pre‐incubated 1 h, then acetylated peptide (100 μM to 2.3 pM) added for 1 h; binding buffer (50 mM Tris, 100 mM NaCl, pH 8.0); ambient temperature; triplicate; details: both partners purified

B1: ^AcBax‐BH3^ΔB (peptide)
chain: STKKLSEXLKRIGDELDSNM
HELM: PEPTIDE1{[ac].S.T.K.K.L.S.E.[Abu].L.K.R.I.G.D.E.L.D.S.N.M.[am]}$$$$V2.0
SMILES: CC[C@H](NC(=O)[C@H](CCC(=O)O)NC(=O)[C@H](CO)NC(=O)[C@H](CC(C)C)NC(=O)[C@H](CCCCN)NC(=O)[C@H](CCCCN)NC(=O)[C@@H](NC(=O)[C@H](CO)NC(C)=O)[C@@H](C)O)C(=O)N[C@@H](CC(C)C)C(=O)N[C@@H](CCCCN)C(=O)N[C@@H](CCCNC(=N)N)C(=O)N[C@H](C(=O)NCC(=O)N[C@@H](CC(=O)O)C(=O)N[C@@H](CCC(=O)O)C(=O)N[C@@H](CC(C)C)C(=O)N[C@@H](CC(=O)O)C(=O)N[C@@H](CO)C(=O)N[C@@H](CC(N)=O)C(=O)N[C@@H](CCSC)C(N)=O)[C@@H](C)CC
B1 was tested, and the Kd [1] was 191 nM, the dH [1] was -5.43 kcal/mol and the “stoichiometry N” value [1] was 0.93. For the same binder, the IC50 [2] was 141 nM.

From PMC11794977, “Inhibitory Potential and Binding Thermodynamics of Scyllatoxin‐Based BH3 Domain Mimetics Targeting Repressor BCL2 Proteins” (Journal of Molecular Recognition, 2025)
